Patent US20100260805A1 (CIRCASSIA, published 2010)

T1: DQA1*0102/DQB1*0602 (human, UniProt P01920 33-230, limits assumed)
T1 construct: human MHC class II allotype
T1 MHC II alpha: not shown
T1 MHC II beta: not shown

T2: HLA-DRB1*1101 (human)
T2 chain 1: not shown
T2 chain 2: not shown

T3: HLA-DRB1*0701 (human)
T3 chain 1: not shown
T3 chain 2: not shown

T4: HLA-DRB1*1501 (human)
T4 chain 1: not shown
T4 chain 2: not shown

T5: DQA1*0102/DQB1*0602 (human), P01920
T5 chain 1: not shown
T5 chain 2: not shown

B1: Fel d 1 peptide EQVAQYKALPVVLENA (peptide)
peptide: EQVAQYKALPVVLENA
notes: said to have been tested in an earlier study

Target: T1, DQA1*0102/DQB1*0602
Assay: competitive MHC class II binding assay; competitor: control peptide Human Insulin B 1-15

Binder | ratio of IC50 to that of the control peptide
DGLEVDVPGIDPNACH (purity 66.7%) [HDM23A] | 0.76 ratio
RTVTPIRMQGGCG [HDM02] | 0.03 ratio
DTVRAEMTKVLAP [HDM49] | 1.7 ratio
DGVLACAIATHAKIR [HDM26A] | 0.61 ratio
HDDVVSMEYDLAYKL [HDM39A] | 0.1 ratio

Target: T6, HLA-DRB1*0401 (human)
T6 construct: human MHC class II allotype
Assay: competitive MHC class II binding assay; competitor: control peptide Influenza haemagglutinin 307-319;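 note: each peptide was tested for its capacity to displace a known reference binder from human MHC class II allotypes, and its IC50 is expressed relative to that of the reference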

Binder | ratio of IC50 to that of the control peptide
RGKPFQLEAVFEANQNT [HDM21B] | 0.78 ratio
KPFQLEAVFEANQNT [HDM21] | 11.2 ratio
KPFQLEAVFEANQNTK [HDM21A] | 52.2 ratio
HDDVVSMEYDLAYKL [HDM39A] | 76.2 ratio

Target: T7, HLA-DRB1*0101 (human)
T7 construct: human MHC class II allotype
Assay: as above

Binder | ratio of IC50 to that of the control peptide
RGKPFQLEAVFEANQNT [HDM21B] | 13.5 ratio
KPFQLEAVFEANQNT [HDM21] | 92 ratio
KPFQLEAVFEANQNTK [HDM21A] | 200 ratio
DGVLACAIATHAKIR [HDM26A] | 42.3 ratio

Target: T8, HLA-DRB1*1101 (human)
T8 construct: human MHC class II allotype
Assay: as above

Binder | ratio of IC50 to that of the control peptide
REALAQTHSAIAVI [HDM09A] | 21.1 ratio
RNIQVRGLKQMKRVG [HDM34] | 3.38 ratio
RGKPFQLEAVFEANQNT [HDM21B] | 4.1 ratio
KPFQLEAVFEANQNT [HDM21] | 11.7 ratio
KPFQLEAVFEANQNTK [HDM21A] | 10.3 ratio
TAIFQDTVRAEMTK [HDM48] | 13.6 ratio
LDMRNIQVRGLKQ [HDM33] | 41.5 ratio

Target: T9, HLA-DRB1*0701 (human)
T9 construct: human MHC class II allotype
Assay: as above

Binder | ratio of IC50 to that of the control peptide
REALAQTHSAIAVI [HDM09A] | 0.49 ratio
TAIFQDTVRAEMTK [HDM48] | 15.7 ratio
LDMRNIQVRGLKQ [HDM33] | 46.5 ratio
DGVLACAIATHAKIR [HDM26A] | 16.3 ratio
IDLRQMRTVTPIR [HDM01] | 16 ratio
HDDVVSMEYDLAYKL [HDM39A] | 0.71 ratio

Target: T10, HLA-DRB1*1501 (human)
T10 construct: human MHC class II allotype
Assay: competitive MHC class II binding assay; competitor: control peptide Human myelin basic protein 85-99

Binder | ratio of IC50 to that of the control peptide
REALAQTHSAIAVI [HDM09A] | 200 ratio
RTVTPIRMQGGCG [HDM02] | 80 ratio
RNIQVRGLKQMKRVG [HDM34] | 769 ratio
DTVRAEMTKVLAP [HDM49] | 671 ratio

Target: T10, HLA-DRB1*1501
Assay: competitive MHC class II binding assay, high stringency screen; competitor: control peptide Myelin Basic Protein 85-99

Binder | ratio of IC50 to that of the control peptide
B1 | 0.97 ratio

Target: T11, HLA-DRB1*0301 (human)
T11 construct: human MHC class II allotype
Assay: competitive MHC class II binding assay; competitor: control peptide Myco. tuberculosis/leprae hsp 65 2-16

Binder | ratio of IC50 to that of the control peptide
DGLEVDVPGIDPNACH (purity 66.7%) [HDM23A] | 347 ratio
TAIFQDTVRAEMTK [HDM48] | 211 ratio
IDLRQMRTVTPIR [HDM01] | 19.2 ratio

Target: T2, HLA-DRB1*1101 (human)
Assay: not given

Binder | ratio of IC50 to that of the control peptide
CIIHRGKPFQLEA (modifications not checked) [HDM20] | 28

Target: T3, HLA-DRB1*0701 (human)
Assay: not given

Binder | ratio of IC50 to that of the control peptide
CIIHRGKPFQLEA (modifications not checked) [HDM20] | 1.1

Target: T4, HLA-DRB1*1501 (human)
Assay: not given

Binder | ratio of IC50 to that of the control peptide
CIIHRGKPFQLEA (modifications not checked) [HDM20] | 242

Target: T5, DQA1*0102/DQB1*0602 (human), P01920
Assay: not given

Binder | ratio of IC50 to that of the control peptide
CIIHRGKPFQLEA (modifications not checked) [HDM20] | 2.37

Target: T12, HLA-DRB1*1301 (human)
T12 construct: human MHC class II allotype
Assay: competitive MHC class II binding assay; competitor: control peptide HLA-DQB1*0603 21-36

Binder | ratio of IC50 to that of the control peptide
RNIQVRGLKQMKRVG [HDM34] | 3.7 ratio
LDMRNIQVRGLKQ [HDM33] | 263 ratio
